Source: doi:10.1101/2024.07.16.603715

Molecular target: PTPRD/S (signal of the anti-PTPR blot in BN-PAGE)
Experiment: native gel or EMSA

stoichiometry N: 1
Substance: tetraspanin T178B (natural protein)
